Earlier results, collected in paper PMC8199771.

Key:
[1] = biological target: muscle nAChR alpha1-gamma and alpha1-delta interfaces (Mus musculus) (UniProt P04756)
[2] = biological target: muscle nAChR alpha1-epsilon interface (Mus musculus) (UniProt P04756)
[3] = biological target: muscle nAChR alpha-delta interface (Mus musculus) (UniProt P04756)
[4] = biological target: muscle nAChR (Homo sapiens) (UniProt P02708)
[5] = biological target: muscle nAChR alpha-epsilon interface (Mus musculus) (UniProt P04756)

Row | Substance | Kd [1] | Kd [2] | Kd [3] | Kd [4] | Kd [5]
1 | NmmI (from UniProt P01431) | 0.1 nM | 100 nM | – | – | –
2 | Waglerin-1 (from UniProt P24335) | – | – | 20200 nM | 692 nM | 9.8 nM
